Reference: paper PMC11446282

B1: ZDS1 G874: ZDS1, G874 to alanine (protein, UniProt P50111 1-915, looked up, variant G874A)
Protein ZDS1: MSNRDNESMLRTTSSDKAIASQRDKRKSEVLIAAQSLDNEIRSVKNLKRLSIGSMDLLIDPELDIKFGGESSGRRSWSGTTSSSASMPSDTTTVNNTRYSDPTPLENLHGRGNSGIESSNKTKQGNYLGIKKGVHSPSRKLNANVLKKNLLWVPANQHPNVKPDNFLELVQDTLQNIQLSDNGEDNDGNSNENNDIEDNGEDKESQSYENKENNTINLNRGLSRHGNASLIRRPSTLRRSYTEFDDNEDDDNKGDSASETVNKVEERISKIKERPVSLRDITEELTKISNSAGLTDNDAITLARTLSMAGSYSDKKDQPQPEGHYDEGDIGFSTSQANTLDDGEFASNMPINNTMTWPERSSLRRSRFNTYRIRSQEQEKEVEQSVDEMKNDDEERLKLTKNTIKVEIDPHKSPFRQQDEDSENMSSPGSIGDFQDIYNHYRQSSGEWEQEMGIEKEAEEVPVKVRNDTVEQDLELREGTTDMVKPSATDDNKETKRHRRRNGWTWLNNKMSREDDNEENQGDDENEENVDSQRMELDNSKKHYISLFNGGEKTEVSNKEEMNNSSTSTATSQTRQKIEKTFANLFRRKPHHKHDASSSPSSSPSSSPSIPNNDAVHVRVRKSKKLGNKSGREPVEPIVLRNRPRPHRHHHSRHGSQKISVKTLKDSQPQQQIPLQPQLEGAIEIEKKEESDSESLPQLQPAVSVSSTKSNSRDREEEEAKKKNKKRSNTTEISNQQHSKHVQKENTDEQKAQLQAPAQEQVQTSVPVQASAPVQNSAPVQTSAPVEASAQTQAPAAPPLKHTSILPPRKLTFADVKKPDKPNSPVQFTDSAFGFPLPLLTVSTVIMFDHRLPINVERAIYRLSHLKLSNSKRALREQVLLSNFMYAYLNLVNHTLYMEQVAHDKEQQQQQQQQP
B2: ZDS1 R876: ZDS1, R876 to alanine (protein, UniProt P50111 1-915, looked up, variant R876A)
Protein ZDS1: MSNRDNESMLRTTSSDKAIASQRDKRKSEVLIAAQSLDNEIRSVKNLKRLSIGSMDLLIDPELDIKFGGESSGRRSWSGTTSSSASMPSDTTTVNNTRYSDPTPLENLHGRGNSGIESSNKTKQGNYLGIKKGVHSPSRKLNANVLKKNLLWVPANQHPNVKPDNFLELVQDTLQNIQLSDNGEDNDGNSNENNDIEDNGEDKESQSYENKENNTINLNRGLSRHGNASLIRRPSTLRRSYTEFDDNEDDDNKGDSASETVNKVEERISKIKERPVSLRDITEELTKISNSAGLTDNDAITLARTLSMAGSYSDKKDQPQPEGHYDEGDIGFSTSQANTLDDGEFASNMPINNTMTWPERSSLRRSRFNTYRIRSQEQEKEVEQSVDEMKNDDEERLKLTKNTIKVEIDPHKSPFRQQDEDSENMSSPGSIGDFQDIYNHYRQSSGEWEQEMGIEKEAEEVPVKVRNDTVEQDLELREGTTDMVKPSATDDNKETKRHRRRNGWTWLNNKMSREDDNEENQGDDENEENVDSQRMELDNSKKHYISLFNGGEKTEVSNKEEMNNSSTSTATSQTRQKIEKTFANLFRRKPHHKHDASSSPSSSPSSSPSIPNNDAVHVRVRKSKKLGNKSGREPVEPIVLRNRPRPHRHHHSRHGSQKISVKTLKDSQPQQQIPLQPQLEGAIEIEKKEESDSESLPQLQPAVSVSSTKSNSRDREEEEAKKKNKKRSNTTEISNQQHSKHVQKENTDEQKAQLQAPAQEQVQTSVPVQASAPVQNSAPVQTSAPVEASAQTQAPAAPPLKHTSILPPRKLTFADVKKPDKPNSPVQFTDSAFGFPLPLLTVSTVIMFDHRLPINVERAIYRLSHLKLSNSKRGLAEQVLLSNFMYAYLNLVNHTLYMEQVAHDKEQQQQQQQQP
B3: ZDS1 E877: ZDS1, E877 to alanine (protein, UniProt P50111 1-915, looked up, variant E877A)
Protein ZDS1: MSNRDNESMLRTTSSDKAIASQRDKRKSEVLIAAQSLDNEIRSVKNLKRLSIGSMDLLIDPELDIKFGGESSGRRSWSGTTSSSASMPSDTTTVNNTRYSDPTPLENLHGRGNSGIESSNKTKQGNYLGIKKGVHSPSRKLNANVLKKNLLWVPANQHPNVKPDNFLELVQDTLQNIQLSDNGEDNDGNSNENNDIEDNGEDKESQSYENKENNTINLNRGLSRHGNASLIRRPSTLRRSYTEFDDNEDDDNKGDSASETVNKVEERISKIKERPVSLRDITEELTKISNSAGLTDNDAITLARTLSMAGSYSDKKDQPQPEGHYDEGDIGFSTSQANTLDDGEFASNMPINNTMTWPERSSLRRSRFNTYRIRSQEQEKEVEQSVDEMKNDDEERLKLTKNTIKVEIDPHKSPFRQQDEDSENMSSPGSIGDFQDIYNHYRQSSGEWEQEMGIEKEAEEVPVKVRNDTVEQDLELREGTTDMVKPSATDDNKETKRHRRRNGWTWLNNKMSREDDNEENQGDDENEENVDSQRMELDNSKKHYISLFNGGEKTEVSNKEEMNNSSTSTATSQTRQKIEKTFANLFRRKPHHKHDASSSPSSSPSSSPSIPNNDAVHVRVRKSKKLGNKSGREPVEPIVLRNRPRPHRHHHSRHGSQKISVKTLKDSQPQQQIPLQPQLEGAIEIEKKEESDSESLPQLQPAVSVSSTKSNSRDREEEEAKKKNKKRSNTTEISNQQHSKHVQKENTDEQKAQLQAPAQEQVQTSVPVQASAPVQNSAPVQTSAPVEASAQTQAPAAPPLKHTSILPPRKLTFADVKKPDKPNSPVQFTDSAFGFPLPLLTVSTVIMFDHRLPINVERAIYRLSHLKLSNSKRGLRAQVLLSNFMYAYLNLVNHTLYMEQVAHDKEQQQQQQQQP
B4: ZDS1 Q878: ZDS1, Q878 to alanine (protein, UniProt P50111 1-915, looked up, variant Q878A)
Protein ZDS1: MSNRDNESMLRTTSSDKAIASQRDKRKSEVLIAAQSLDNEIRSVKNLKRLSIGSMDLLIDPELDIKFGGESSGRRSWSGTTSSSASMPSDTTTVNNTRYSDPTPLENLHGRGNSGIESSNKTKQGNYLGIKKGVHSPSRKLNANVLKKNLLWVPANQHPNVKPDNFLELVQDTLQNIQLSDNGEDNDGNSNENNDIEDNGEDKESQSYENKENNTINLNRGLSRHGNASLIRRPSTLRRSYTEFDDNEDDDNKGDSASETVNKVEERISKIKERPVSLRDITEELTKISNSAGLTDNDAITLARTLSMAGSYSDKKDQPQPEGHYDEGDIGFSTSQANTLDDGEFASNMPINNTMTWPERSSLRRSRFNTYRIRSQEQEKEVEQSVDEMKNDDEERLKLTKNTIKVEIDPHKSPFRQQDEDSENMSSPGSIGDFQDIYNHYRQSSGEWEQEMGIEKEAEEVPVKVRNDTVEQDLELREGTTDMVKPSATDDNKETKRHRRRNGWTWLNNKMSREDDNEENQGDDENEENVDSQRMELDNSKKHYISLFNGGEKTEVSNKEEMNNSSTSTATSQTRQKIEKTFANLFRRKPHHKHDASSSPSSSPSSSPSIPNNDAVHVRVRKSKKLGNKSGREPVEPIVLRNRPRPHRHHHSRHGSQKISVKTLKDSQPQQQIPLQPQLEGAIEIEKKEESDSESLPQLQPAVSVSSTKSNSRDREEEEAKKKNKKRSNTTEISNQQHSKHVQKENTDEQKAQLQAPAQEQVQTSVPVQASAPVQNSAPVQTSAPVEASAQTQAPAAPPLKHTSILPPRKLTFADVKKPDKPNSPVQFTDSAFGFPLPLLTVSTVIMFDHRLPINVERAIYRLSHLKLSNSKRGLREAVLLSNFMYAYLNLVNHTLYMEQVAHDKEQQQQQQQQP
B5: ZDS1 L875: ZDS1, L875 to alanine (protein, UniProt P50111 1-915, looked up, variant L875A)
Protein ZDS1: MSNRDNESMLRTTSSDKAIASQRDKRKSEVLIAAQSLDNEIRSVKNLKRLSIGSMDLLIDPELDIKFGGESSGRRSWSGTTSSSASMPSDTTTVNNTRYSDPTPLENLHGRGNSGIESSNKTKQGNYLGIKKGVHSPSRKLNANVLKKNLLWVPANQHPNVKPDNFLELVQDTLQNIQLSDNGEDNDGNSNENNDIEDNGEDKESQSYENKENNTINLNRGLSRHGNASLIRRPSTLRRSYTEFDDNEDDDNKGDSASETVNKVEERISKIKERPVSLRDITEELTKISNSAGLTDNDAITLARTLSMAGSYSDKKDQPQPEGHYDEGDIGFSTSQANTLDDGEFASNMPINNTMTWPERSSLRRSRFNTYRIRSQEQEKEVEQSVDEMKNDDEERLKLTKNTIKVEIDPHKSPFRQQDEDSENMSSPGSIGDFQDIYNHYRQSSGEWEQEMGIEKEAEEVPVKVRNDTVEQDLELREGTTDMVKPSATDDNKETKRHRRRNGWTWLNNKMSREDDNEENQGDDENEENVDSQRMELDNSKKHYISLFNGGEKTEVSNKEEMNNSSTSTATSQTRQKIEKTFANLFRRKPHHKHDASSSPSSSPSSSPSIPNNDAVHVRVRKSKKLGNKSGREPVEPIVLRNRPRPHRHHHSRHGSQKISVKTLKDSQPQQQIPLQPQLEGAIEIEKKEESDSESLPQLQPAVSVSSTKSNSRDREEEEAKKKNKKRSNTTEISNQQHSKHVQKENTDEQKAQLQAPAQEQVQTSVPVQASAPVQNSAPVQTSAPVEASAQTQAPAAPPLKHTSILPPRKLTFADVKKPDKPNSPVQFTDSAFGFPLPLLTVSTVIMFDHRLPINVERAIYRLSHLKLSNSKRGAREQVLLSNFMYAYLNLVNHTLYMEQVAHDKEQQQQQQQQP
B6: ZDS1 V879: ZDS1, V879 to alanine (protein, UniProt P50111 1-915, looked up, variant V879A)
Protein ZDS1: MSNRDNESMLRTTSSDKAIASQRDKRKSEVLIAAQSLDNEIRSVKNLKRLSIGSMDLLIDPELDIKFGGESSGRRSWSGTTSSSASMPSDTTTVNNTRYSDPTPLENLHGRGNSGIESSNKTKQGNYLGIKKGVHSPSRKLNANVLKKNLLWVPANQHPNVKPDNFLELVQDTLQNIQLSDNGEDNDGNSNENNDIEDNGEDKESQSYENKENNTINLNRGLSRHGNASLIRRPSTLRRSYTEFDDNEDDDNKGDSASETVNKVEERISKIKERPVSLRDITEELTKISNSAGLTDNDAITLARTLSMAGSYSDKKDQPQPEGHYDEGDIGFSTSQANTLDDGEFASNMPINNTMTWPERSSLRRSRFNTYRIRSQEQEKEVEQSVDEMKNDDEERLKLTKNTIKVEIDPHKSPFRQQDEDSENMSSPGSIGDFQDIYNHYRQSSGEWEQEMGIEKEAEEVPVKVRNDTVEQDLELREGTTDMVKPSATDDNKETKRHRRRNGWTWLNNKMSREDDNEENQGDDENEENVDSQRMELDNSKKHYISLFNGGEKTEVSNKEEMNNSSTSTATSQTRQKIEKTFANLFRRKPHHKHDASSSPSSSPSSSPSIPNNDAVHVRVRKSKKLGNKSGREPVEPIVLRNRPRPHRHHHSRHGSQKISVKTLKDSQPQQQIPLQPQLEGAIEIEKKEESDSESLPQLQPAVSVSSTKSNSRDREEEEAKKKNKKRSNTTEISNQQHSKHVQKENTDEQKAQLQAPAQEQVQTSVPVQASAPVQNSAPVQTSAPVEASAQTQAPAAPPLKHTSILPPRKLTFADVKKPDKPNSPVQFTDSAFGFPLPLLTVSTVIMFDHRLPINVERAIYRLSHLKLSNSKRGLREQALLSNFMYAYLNLVNHTLYMEQVAHDKEQQQQQQQQP

The molecules below were run on PP2A-B55α (assay: Single alanine mutational scan, YFP-tagged interactors immunoprecipitated from HeLa cells, Western blot). Settings: single alanine mutant of YFP-tagged ZDS1.
Format: binding, human

**Q.** B1 was tested. Which Experimental % binding did it give?
**A.** 80%

**Q.** For B2, which Experimental % binding is on record?
**A.** 0%

**Q.** With B3 as the molecule, how does the Experimental % binding read?
**A.** 0%

**Q.** B4 was tested. Which Experimental % binding did it give?
**A.** 13%

**Q.** Which Experimental % binding does the source give for B5 here?
**A.** 0%

**Q.** For B6, which Experimental % binding is on record?
**A.** 2%
